Assay results as given in paper PMC11558545, “Mechanistic Insights into the Function of 14-3-3 Proteins as Negative Regulators of Brassinosteroid Signaling in Arabidopsis” (Plant and Cell Physiology, 2024).
pKd: −log10 of the molar value.

Legend:
14-3-3κ = 14-3-3κ (UniProt P48348); assay: isothermal titration calorimetry
[1] = biological target: Arabidopsis 14-3-3 isoform kappa (At14-3-3-κ^1−248) (Arabidopsis thaliana) (UniProt P48348); assay: ITC; Nano ITC, 25°C, 25 mM Hepes pH 7.0, 50 mM KCl; 600 μM peptide or phosphopeptide injected into 50 μM 14-3-3 protein in the cell, 25 injections
[2] = biological target: biotinylated 14-3-3 ω dimer (Arabidopsis thaliana) (UniProt Q01525); assay: grating-coupled interferometry (GCI); Creoptix WAVE; biotinylated 14-3-3 ω dimer captured on a streptavidin-coated 4PCH chip (~500 pg/mm^2); peptide as analyte, 2-fold dilution series from 10 µM; 25°C; 20 mM Hepes, 150 mM NaCl; 1-to-1 (2:2) binding model
biotinylated 14-3-3 ω dimer (Arabidopsis thaliana), sequence (Q01525 whole entry): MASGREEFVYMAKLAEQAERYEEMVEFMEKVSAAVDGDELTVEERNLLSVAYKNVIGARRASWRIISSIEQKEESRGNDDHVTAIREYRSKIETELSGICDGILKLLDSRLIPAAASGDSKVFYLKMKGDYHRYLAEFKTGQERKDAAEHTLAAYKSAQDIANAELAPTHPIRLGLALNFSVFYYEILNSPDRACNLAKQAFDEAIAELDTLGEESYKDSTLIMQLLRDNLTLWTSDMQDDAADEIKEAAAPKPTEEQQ

Arabidopsis 14-3-3 isoform kappa (At14-3-3-κ^1−248) (Arabidopsis thaliana), sequence (P48348 whole entry, canonical isoform): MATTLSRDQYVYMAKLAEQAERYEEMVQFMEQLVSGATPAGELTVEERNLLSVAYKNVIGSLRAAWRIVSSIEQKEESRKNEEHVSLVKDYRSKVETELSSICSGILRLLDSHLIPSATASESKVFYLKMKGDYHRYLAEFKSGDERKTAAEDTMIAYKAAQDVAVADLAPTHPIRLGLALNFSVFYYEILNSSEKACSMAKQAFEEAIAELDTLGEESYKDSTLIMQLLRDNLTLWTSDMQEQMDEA
14-3-3κ, sequence (P48348 whole entry, looked up, canonical isoform): as the sequence (P48348 whole entry, canonical isoform) above

| Substance | pKd [1] | stoichiometry N [1] | further results |
| --- | --- | --- | --- |
| BKI1 265-272 (from UniProt Q9FMZ0) pS270 peptide | – | – | KD (14-3-3κ; reference: unphosphorylated BKI1 265-272 peptide, sites S270): gained; reference No binding was detected |
| BRI1 869-874 (from UniProt O22476) pT872 peptide | – | – | binding against the reference (14-3-3κ; reference: unphosphorylated BRI1 869-874 peptide, sites T872): gained |
| pBKI1^265−272 peptide | 4.80 | 1 | – |
| pBRI1^869−874 peptide | – | 1 | – |
| pBZR1^169−175 peptide | 6.30 | 1 | pKd [2]: 6.30; complex lifetime [2]: 1 s |
